Target: human CD22 on cells (Daudi, Raji, Nalm.6, K562-CD22) (human) (UniProt P20273)
Assay: flow cytometry on K562.huCD22.Luc cells against parental K562 cells, 4 C 30 min

UniProt P20273, sequence (P20273 20-847): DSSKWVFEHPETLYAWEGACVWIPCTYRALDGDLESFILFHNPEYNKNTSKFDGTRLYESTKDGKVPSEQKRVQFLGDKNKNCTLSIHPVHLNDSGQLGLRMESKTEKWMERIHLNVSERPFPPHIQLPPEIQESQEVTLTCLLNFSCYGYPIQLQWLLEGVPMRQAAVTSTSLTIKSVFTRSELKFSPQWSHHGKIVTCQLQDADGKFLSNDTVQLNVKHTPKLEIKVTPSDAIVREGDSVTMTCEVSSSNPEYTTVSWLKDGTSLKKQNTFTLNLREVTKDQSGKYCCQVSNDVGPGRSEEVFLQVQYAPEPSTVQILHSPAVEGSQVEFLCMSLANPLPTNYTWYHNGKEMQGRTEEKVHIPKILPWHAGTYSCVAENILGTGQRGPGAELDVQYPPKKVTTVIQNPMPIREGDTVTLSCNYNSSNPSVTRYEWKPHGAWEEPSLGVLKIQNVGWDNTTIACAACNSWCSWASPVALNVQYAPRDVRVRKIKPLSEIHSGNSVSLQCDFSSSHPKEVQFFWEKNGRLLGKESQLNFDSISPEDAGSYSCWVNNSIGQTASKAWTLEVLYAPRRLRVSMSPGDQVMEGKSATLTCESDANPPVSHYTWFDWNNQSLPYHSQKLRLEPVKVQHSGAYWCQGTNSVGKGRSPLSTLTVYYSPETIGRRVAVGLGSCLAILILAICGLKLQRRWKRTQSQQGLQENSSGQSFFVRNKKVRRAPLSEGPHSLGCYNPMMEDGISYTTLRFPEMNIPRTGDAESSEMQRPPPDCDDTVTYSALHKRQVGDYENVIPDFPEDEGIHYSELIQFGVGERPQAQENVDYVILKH

MFI fold over K562 cells (negative control): 642 fold
Substance: PE conjugated anti-human CD22 antibody (Miltenyi Biotec, Cat. No. 130-105-086)

From patent publication US20230250184A1
